Measured values published in patent US20230374078A1 (Janssen / Centocor, published 2023).

Target: C97ZA_SOSIP_L556P_T651F_M535N (HIV-1 clade C strain C97ZA)
Assay: AlphaLISA on crude cell culture supernatant

B1: mAb PGT145 (antibody, V domains shown)
VH: QVQLVQSGAEVKKPGSSVKVSCKASGNSFSNHDVHWVRQATGQGLEWMGWMSHEGDKTGLAQKFQGRVTITRDSGASTVYMELRGLTADDTAIYYCLTGSKHRLRDYFLYNEYGPNYEEWGDYLATLDVWGHGTAVTVSS
VL: EVVITQSPLFLPVTPGEAASLSCKCSHSLQHSTGANYLAWYLQRPGQTPRLLIHLATHRASGVPDRFSGSGSGTDFTLKISRVESDDVGTYYCMQGLHSPWTFGQGTKVEIKR
- trimer yield (PGT145 AlphaLISA signal), fold over the C97ZA_SOSIP backbone: 5 fold
